From the supplement of paper PMC10126150
± gives the standard deviation of the averaged measurements.

Test system: ATP
Test: switch fluorescence ratio, 500 uM ATP over buffer (Cy3 cluster intensity, sum of 5 cycles each) (fold (ratio)); higher = stronger signal-on switching upon ATP binding; sequences stand for … in TCGTCGGCAGCGTCAGATGTGTATAAGAGACAGTTTTTTTTTTTTTTTTTTTTTTTTT…TC
Conditions: aptamer strand: ATP DNA aptamer (quencher-CACCTGGGGGAGTATTGCGGAGGAAGG + anchor), 100 nM annealed; ATP concentration: 500 uM
Outline: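 After annealing to 100 nM quencher-labelled ATP aptamer, Cy3-labelled switching-strand clusters on a modified Illumina MiSeq flow-cell were imaged in selection buffer. A second image followed after 15 min with 500 uM ATP at 22 °C, and five such buffer/ATP cycles were done, each separated by NaOH stripping and re-annealing. The fluorescence ratio, averaged per switch-domain sequence, is summed target-cycle over summed buffer-cycle Cy3 intensity per cluster, with clusters outside 100-1000 RFU excluded.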
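Note: ATP exposure 15 min at 22 °C before imaging.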

For TGTGAGAGGG, the switch fluorescence ratio was 1 ± 0.019.
TGTGAGAGTT showed a switch fluorescence ratio of 0.9826 ± 0.0098.
In the case of TGTGAGCAGG, the switch fluorescence ratio is reported as 1.15 ± 0.044.
Sequence TGTGAGCCTG has a switch fluorescence ratio of 0.98 ± 0.092.
TGTGAGCTGT showed a switch fluorescence ratio of 1.0077 ± 0.00016.
Work on TGTGAGGCGG yielded a switch fluorescence ratio of 1.04 ± 0.11.
TGTGAGGGGT was tested, and the switch fluorescence ratio was 0.994 ± 0.033.
TGTGAGGTGT showed a switch fluorescence ratio of 1.02 ± 0.062.
TGTGAGTAGG gave a switch fluorescence ratio of 1.02 ± 0.017.
TGTGAGTGTG was tested, and the switch fluorescence ratio was 0.983 ± 0.015.
With TGTGATAGAG the switch fluorescence ratio was 0.989 ± 0.029.
With TGTGATGAGT the switch fluorescence ratio was 0.992 ± 0.024.
Work on TGTGATGGTT yielded a switch fluorescence ratio of 1.005 ± 0.0013.
With TGTGATTTAA the switch fluorescence ratio was 1.002 ± 0.0028.
In the case of TGTGATTTAT, the switch fluorescence ratio is reported as 1.0046 ± 0.00072.
Work on TGTGATTTGA yielded a switch fluorescence ratio of 0.9763 ± 0.0026.
With TGTGCAATGT the switch fluorescence ratio was 1.3 ± 0.029.
TGTGCCCCTT showed a switch fluorescence ratio of 0.991 ± 0.042.
Sequence TGTGCTCGGA has a switch fluorescence ratio of 1.04 ± 0.1.
TGTGCTGGGT showed a switch fluorescence ratio of 1.02 ± 0.024.
Sequence TGTGGAAGGT has a switch fluorescence ratio of 0.9999 ± 0.0078.
TGTGGCAAGA gave a switch fluorescence ratio of 1.14 ± 0.14.
With TGTGGCGGGA the switch fluorescence ratio was 1.06 ± 0.13.
In the case of TGTGGCTCTG, the switch fluorescence ratio is reported as 0.9571 ± 0.0087.
TGTGGGATAC showed a switch fluorescence ratio of 1.2 ± 0.015.
Sequence TGTGGGCGC has a switch fluorescence ratio of 1.01 ± 0.098.
Work on TGTGGGGACC yielded a switch fluorescence ratio of 1.05 ± 0.05.
TGTGGGGAGG gave a switch fluorescence ratio of 0.969 ± 0.027.
Work on TGTGGGGCAA yielded a switch fluorescence ratio of 1.05 ± 0.019.
TGTGGGGGAT gave a switch fluorescence ratio of 1.01 ± 0.06.
TGTGGGGTAG showed a switch fluorescence ratio of 1.01 ± 0.029.
TGTGGGTGAG showed a switch fluorescence ratio of 1 ± 0.02.
Work on TGTGGTAGAA yielded a switch fluorescence ratio of 0.989 ± 0.023.
TGTGGTATTA gave a switch fluorescence ratio of 0.976 ± 0.036.
For TGTGGTATTT, the switch fluorescence ratio was 0.972 ± 0.027.
In the case of TGTGGTGCGA, the switch fluorescence ratio is reported as 0.995 ± 0.029.
With TGTGGTGGGG the switch fluorescence ratio was 0.996 ± 0.042.
TGTGGTGGGT was tested, and the switch fluorescence ratio was 1.042 ± 0.0097.
With TGTGTAAAGT the switch fluorescence ratio was 1.82 ± 1.2.
Work on TGTGTAATTG yielded a switch fluorescence ratio of 1.01 ± 0.032.
Work on TGTGTATTGT yielded a switch fluorescence ratio of 0.985 ± 0.031.
For TGTGTCAGCT, the switch fluorescence ratio was 0.9981 ± 0.0041.
In the case of TGTGTCATGT, the switch fluorescence ratio is reported as 0.989 ± 0.013.
TGTGTCTGTT was tested, and the switch fluorescence ratio was 0.9933 ± 0.0025.
TGTGTCTTTT showed a switch fluorescence ratio of 1.01 ± 0.047.
For TGTGTGAGT, the switch fluorescence ratio was 0.964 ± 0.013.
Sequence TGTGTGAGTG has a switch fluorescence ratio of 0.981 ± 0.054.
With TGTGTGCCGG the switch fluorescence ratio was 0.9332 ± 0.0057.
In the case of TGTGTGTTTA, the switch fluorescence ratio is reported as 1.01 ± 0.012.
TGTGTGTTTG was tested, and the switch fluorescence ratio was 0.989 ± 0.015.
For TGTGTTATAC, the switch fluorescence ratio was 1.05 ± 0.043.
Work on TGTGTTATGT yielded a switch fluorescence ratio of 1.03 ± 0.038.
In the case of TGTGTTATTT, the switch fluorescence ratio is reported as 0.999 ± 0.024.
In the case of TGTGTTCACA, the switch fluorescence ratio is reported as 0.98 ± 0.0058.
For TGTGTTCACT, the switch fluorescence ratio was 1.01 ± 0.036.
Sequence TGTGTTCCGA has a switch fluorescence ratio of 0.9975 ± 0.0083.
In the case of TGTGTTTAGT, the switch fluorescence ratio is reported as 1.01 ± 0.013.
With TGTGTTTATA the switch fluorescence ratio was 1.013 ± 0.0095.
TGTGTTTGAG gave a switch fluorescence ratio of 0.972 ± 0.051.
TGTTAAACGG showed a switch fluorescence ratio of 1.01 ± 0.039.
Sequence TGTTAATGGG has a switch fluorescence ratio of 0.997 ± 0.016.
Sequence TGTTACTCCT has a switch fluorescence ratio of 1.09 ± 0.026.
With TGTTAGGGTT the switch fluorescence ratio was 1.01 ± 0.04.
TGTTAGTCTA was tested, and the switch fluorescence ratio was 0.9884 ± 0.0052.
TGTTATAAAT gave a switch fluorescence ratio of 0.999 ± 0.032.
With TGTTATACGT the switch fluorescence ratio was 1.02 ± 0.019.
Work on TGTTATGAGT yielded a switch fluorescence ratio of 0.99 ± 0.036.
TGTTATGGGT gave a switch fluorescence ratio of 1.04 ± 0.039.
With TGTTATGTTT the switch fluorescence ratio was 0.99 ± 0.032.
Sequence TGTTATTGAA has a switch fluorescence ratio of 0.992 ± 0.046.
Work on TGTTATTGGT yielded a switch fluorescence ratio of 1.01 ± 0.015.
TGTTATTTGT gave a switch fluorescence ratio of 0.975 ± 0.048.
Sequence TGTTCAGACG has a switch fluorescence ratio of 1.03 ± 0.053.
Work on TGTTCCGTAT yielded a switch fluorescence ratio of 0.993 ± 0.044.
With TGTTCGACCG the switch fluorescence ratio was 1.012 ± 0.01.
For TGTTCGGGAT, the switch fluorescence ratio was 0.977 ± 0.01.
TGTTCTTAGT gave a switch fluorescence ratio of 1 ± 0.048.
Sequence TGTTGAAAAG has a switch fluorescence ratio of 0.979 ± 0.01.
TGTTGAAAAT gave a switch fluorescence ratio of 1.02 ± 0.048.
Sequence TGTTGAACGT has a switch fluorescence ratio of 1.004 ± 0.0086.
TGTTGAGTTG was tested, and the switch fluorescence ratio was 0.9749 ± 0.0031.
TGTTGATACT was tested, and the switch fluorescence ratio was 1.06 ± 0.12.
With TGTTGCAGAG the switch fluorescence ratio was 1.03 ± 0.049.
TGTTGCGAAA gave a switch fluorescence ratio of 1 ± 0.025.
With TGTTGCGCCG the switch fluorescence ratio was 0.929 ± 0.081.
